This experiment deals with T1, Fc control (Fc fusion partner alone) (human, UniProt P01857-1 100-330 = IgG part, limits assumed).
T1 construct: domain: Fc; Control protein, 'prepared as described previously'
The experiment in a line: in vivo homing; anti-human Fc immunofluorescence on frozen sections of urethane-induced mouse lung tumors, 2 h after i.p. injection. On the procedure: First, we tested if systemically administered ephrin-A1-Fc could home to urethane-induced lung tumors that overexpress EphA2. Lung tumors were induced in wild type mice with urethane. Twenty-five weeks later, mice were injected i.p. with 5 μg/g ephrin-A1-Fc. Fc fusion partner alone was used as control. Two hours after injection, mice were sacrificed, and tumors were dissected out; frozen sections were subject to immunofluorescence staining to detect whether there was a selective homing of ephrin-A1-Fc to tumor tissues relative to control Fc. […] Both FITC-conjugated donkey anti-Fc and Texas-Red-conjugated goat anti-human Fc antibodies yielded similar patterns of selective tumor homing.

B1: EphA2 kinase of mouse (urethane-induced lung tumors, primary keratinocytes, MEF, mouse lung tumor cell lines) (receptor, UniProt Q03145 26-977, looked up)
chain: KEVVLLDFAAMKGELGWLTHPYGKGWDLMQNIMDDMPIYMYSVCNVVSGDQDNWLRTNWVYREEAERIFIELKFTVRDCNSFPGGASSCKETFNLYYAESDVDYGTNFQKRQFTKIDTIAPDEITVSSDFEARNVKLNVEERMVGPLTRKGFYLAFQDIGACVALLSVRVYYKKCPEMLQSLARFPETIAVAVSDTQPLATVAGTCVDHAVVPYGGEGPLMHCTVDGEWLVPIGQCLCQEGYEKVEDACRACSPGFFKSEASESPCLECPEHTLPSTEGATSCQCEEGYFRAPEDPLSMSCTRPPSAPNYLTAIGMGAKVELRWTAPKDTGGRQDIVYSVTCEQCWPESGECGPCEASVRYSEPPHALTRTSVTVSDLEPHMNYTFAVEARNGVSGLVTSRSFRTASVSINQTEPPKVRLEDRSTTSLSVTWSIPVSQQSRVWKYEVTYRKKGDANSYNVRRTEGFSVTLDDLAPDTTYLVQVQALTQEGQGAGSKVHEFQTLSTEGSANMAVIGGVAVGVVLLLVLAGVGLFIHRRRRNLRARQSSEDVRFSKSEQLKPLKTYVDPHTYEDPNQAVLKFTTEIHPSCVARQKVIGAGEFGEVYKGTLKASSGKKEIPVAIKTLKAGYTEKQRVDFLSEASIMGQFSHHNIIRLEGVVSKYKPMMIITEYMENGALDKFLREKDGEFSVLQLVGMLRGIASGMKYLANMNYVHRDLAARNILVNSNLVCKVSDFGLSRVLEDDPEATYTTSGGKIPIRWTAPEAISYRKFTSASDVWSYGIVMWEVMTYGERPYWELSNHEVMKAINDGFRLPTPMDCPSAIYQLMMQCWQQERSRRPKFADIVSILDKLIRAPDSLKTLADFDPRVSIRLPSTSGSEGVPFRTVSEWLESIKMQQYTEHFMVAGYTAIEKVVQMSNEDIKRIGVRLPGHQKRIAYSLLGLKDQVNTVGIPI
notes: whole, on cells
In the case of B1, the binding result is reported as “no binding (tested: 2.5 µg/ml Fc control (i.p.))”.
